Among the data in patent publication US20250084167A1 (ZENAS BIOPHARMA, published 2025) are EC50 values, retold here.

In the experiment the target is T1, human CD19 (human, UniProt P15391 20-556).
T1 construct: CD19 on B cells of healthy subjects and patients (receptor occupancy in clinical studies); also called human B-cell restricted surface antigen CD19
T1 sequence: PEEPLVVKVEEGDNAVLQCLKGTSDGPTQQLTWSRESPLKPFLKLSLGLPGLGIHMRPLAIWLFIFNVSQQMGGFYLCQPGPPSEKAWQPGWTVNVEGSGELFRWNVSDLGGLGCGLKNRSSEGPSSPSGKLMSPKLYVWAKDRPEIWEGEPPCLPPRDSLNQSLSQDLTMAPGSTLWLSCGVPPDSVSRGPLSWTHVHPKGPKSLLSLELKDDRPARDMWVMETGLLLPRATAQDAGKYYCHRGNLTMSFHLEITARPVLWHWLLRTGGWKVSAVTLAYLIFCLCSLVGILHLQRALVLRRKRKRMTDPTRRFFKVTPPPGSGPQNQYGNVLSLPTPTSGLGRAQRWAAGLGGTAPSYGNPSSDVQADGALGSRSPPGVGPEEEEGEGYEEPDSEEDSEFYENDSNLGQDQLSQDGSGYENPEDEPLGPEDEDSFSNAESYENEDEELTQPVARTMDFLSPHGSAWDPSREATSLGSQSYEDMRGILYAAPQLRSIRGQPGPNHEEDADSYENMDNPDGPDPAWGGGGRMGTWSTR
The experiment can be described thus: population PK/PD model of CD19 receptor occupancy (direct response, sigmoidal Emax) against plasma obexelimab concentration, fitted to data of 4 clinical studies (healthy subjects, RA and IgG4-RD patients); in vivo plasma concentration for half-maximal CD19 receptor occupancy, population PK/PD model fit.

B1: Obexelimab (antibody, human IgG1, kappa, V domains shown)
VH: EVQLVESGGGLVKPGGSLKLSCAASGYTFTSYVMHWVRQAPGKGLEWIGYINPYNDGTKYNEKFQGRVTISSDKSISTAYMELSSLRSEDTAMYYCARGTYYYGTRVFDYWGQGTLVTVSS
VL: DIVMTQSPATLSLSPGERATLSCRSSKSLQNVNGNTYLYWFQQKPGQSPQLLIYRMSNLNSGVPDRFSGSGSGTEFTLTISSLEPEDFAVYYCMQHLEYPITFGAGTKLEIKR
notes: Humanized IgG1 kappa; also called XmAb5871; anti-CD19 antibody
The molecule B1 returned an EC50 of 0.0745 mg/L.

As a reminder, the EC50 is the concentration that produces a half-maximal response.
